Experimental findings from FireProtDB (doi:10.1073/pnas.88.5.1706) are described below.

For the data set the following is noted: Enterobacteria phage fd; pH 7; 25 °C; GdnHCl; CD; MOPS 50 mM; NaCl 100 mM; reversible: yes; whole UniProt chain shown.

B1: DNA-Binding protein G5P wild type, P69542 (protein)
chain: MIKVEIKPSQAQFTTRSGVSRQGKPYSLNEQLCYVDLGNEYPVLVKITLDEGQPAYAPGLYTVHLSSFKVGQFGSLMIDRLRLVPAK
For the protein B1, the denaturant m value amounted to 3.6 kcal/mol/M, the “denaturant midpoint (higher = more stable)” value came out at 2.61 M and the unfolding free energy was determined as 9 kcal/mol.
